Measurements as given in patent US20250295737A1 (AstraZeneca / MedImmune, published 2025).
Changes are numbered by the printed parent chain. Read-outs that look alike come from different tables or passages of the source.

B1: RELAX0069 (Fc fusion)
chain 1: DKTHTCPPCPAPEFEGGPSVFLFPPKPKDTLMISRTPEVTCVVVDVSHEDPEVKFNWYVDGVEVHNAKTKPREEQYNSTYRVVSVLTVLHQDWLNGKEYKCKVSNKALPASIEKTISKAKGQPREPQVYTLPPCREEMTKNQVSLWCLVKGFYPSDIAVEWESNGQPENNYKTTPPVLDSDGSFFLYSKLTVDKSRWQQGNVFSCSVMHEALHNHYTQKSLSLSPGGGGGSGGGGSGGGGSGGGGGSQLYSALANKCCHVGCTKRSLAMFC
chain 2: DKTHTCPPCPAPEFEGGPSVFLFPPKPKDTLMISRTPEVTCVVVDVSHEDPEVKFNWYVDGVEVHNAKTKPREEQYNSTYRVVSVLTVLHQDWLNGKEYKCKVSNKALPASIEKTISKAKGQPREPQVCTLPPSREEMTKNQVSLSCAVKGFYPSDIAVEWESNGQPENNYKTTPPVLDSDGSFFLVSKLTVDKSRWQQGNVFSCSVMHEALHNHYTQKSLSLSPGGGGGSGGGGSGGGGSGGGGGSSWMEEVIKLCGRELVRAQIAICGMSTWS
B2: RELAX0070 (Fc fusion)
chain 1: B1 chain 1 with M269I
chain 2: B1 chain 2
B3: RELAX0020 (Fc fusion)
chain 1: GGAGGACPPCPAPEFEGGPSVFLFPPKPKDTLMISRTPEVTCVVVDVSHEDPEVKFNWYVDGVEVHNAKTKPREEQYNSTYRVVSVLTVLHQDWLNGKEYKCKVSNKALPASIEKTISKAKGQPREPQVYTLPPCREEMTKNQVSLWCLVKGFYPSDIAVEWESNGQPENNYKTTPPVLDSDGSFFLYSKLTVDKSRWQQGNVFSCSVMHEALHNHYTQKSLSLSPGGGGGSGGGGSGGGGSGGGGGSSWMEEVIKLCGRELVRAQIAICGMSTWS
chain 2: GGAGGACPPCPAPEFEGGPSVFLFPPKPKDTLMISRTPEVTCVVVDVSHEDPEVKFNWYVDGVEVHNAKTKPREEQYNSTYRVVSVLTVLHQDWLNGKEYKCKVSNKALPASIEKTISKAKGQPREPQVCTLPPSREEMTKNQVSLSCAVKGFYPSDIAVEWESNGQPENNYKTTPPVLDSDGSFFLVSKLTVDKSRWQQGNVFSCSVMHEALHNHYTQKSLSLSPGGGGGSGGGGSGGGGSGGGGGSQLYSALANKCCHVGCTKRSLARFC
B4: RELAX0071 (Fc fusion)
chain 1: B1 chain 1 with M269Q
chain 2: B1 chain 2
B5: RELAX0072 (Fc fusion)
chain 1: B1 chain 1 with M269A
chain 2: B1 chain 2
B6: RELAX0073 (Fc fusion)
chain 1: B1 chain 1 with M269Y
chain 2: B1 chain 2
B7: RELAX0074 (Fc fusion)
chain 1: B1 chain 1 with M269S
chain 2: B1 chain 2
B8: RELAX0075 (Fc fusion)
chain 1: B1 chain 1 with M269R, F270I
chain 2: B1 chain 2
B9: RELAX0024 (Fc fusion)
chain 1: B1 chain 1 with Y129C, C134S, W146S, L148A, Y187V, M269R
chain 2: B1 chain 2 with C129Y, S134C, S146W, A148L, V187Y
B10: RELAX0021 (Fc fusion)
chain 1: B3 chain 2 with C130Y, S147W, A149L, V188Y
chain 2: B3 chain 1 with C135S, W147S, L149A, Y188V
B11: RELAX0022 (Fc fusion)
chain 1: B3 chain 2 with C130Y
chain 2: B3 chain 1 with C135S
B12: RELAX0091 (Fc fusion)
chain 1: QLYSALANKCCHVGCTKRSLARFCAAAGGGGSGGGGSGGGGSGGGGSACPPCPAPEFEGGPSVFLFPPKPKDTLMISRTPEVTCVVVDVSHEDPEVKFNWYVDGVEVHNAKTKPREEQYNSTYRVVSVLTVLHQDWLNGKEYKCKVSNKALPASIEKTISKAKGQPREPQVYTLPPCREEMTKNQVSLWCLVKGFYPSDIAVEWESNGQPENNYKTTPPVLDSDGSFFLYSKLTVDKSRWQQGNVFSCSVMHEALHNHYTQKSLSLSPG
chain 2: SWMEEVIKLCGRELVRAQIAICGMSTWSAAAGGGGSGGGGSGGGGSGGGGSACPPCPAPEFEGGPSVFLFPPKPKDTLMISRTPEVTCVVVDVSHEDPEVKFNWYVDGVEVHNAKTKPREEQYNSTYRVVSVLTVLHQDWLNGKEYKCKVSNKALPASIEKTISKAKGQPREPQVCTLPPSREEMTKNQVSLSCAVKGFYPSDIAVEWESNGQPENNYKTTPPVLDSDGSFFLVSKLTVDKSRWQQGNVFSCSVMHEALHNHYTQKSLSLSPG
B13: RELAX0117 (Fc fusion)
chain 1: QLYSALANKCCHVGCTKRSLARFCAAAGGGGSGGGGSGGGGSGGGGSACPPCPAPEFEGGPSVFLFPPKPKDTLMISRTPEVTCVVVDVSHEDPEVKFNWYVDGVEVHNAKTKPREEQYNSTYRVVSVLTVLHQDWLNGKEYKCKVSNKALPASIEKTISKAKGQPREPQVYTLPPCREEMTKNQVSLWCLVKGFYPSDIAVEWESNGQPENNYKTTPPVLDSDGSFFLYSKLTVDKSRWQQGNVFSCSVMHEALHNHYTQKSLSLSPGGGGGSGGGGSGGGGSGGGGGSQLYSALANKCCHVGCTKRSLARFC
chain 2: SWMEEVIKLCGRELVRAQIAICGMSTWSAAAGGGGSGGGGSGGGGSGGGGSACPPCPAPEFEGGPSVFLFPPKPKDTLMISRTPEVTCVVVDVSHEDPEVKFNWYVDGVEVHNAKTKPREEQYNSTYRVVSVLTVLHQDWLNGKEYKCKVSNKALPASIEKTISKAKGQPREPQVCTLPPSREEMTKNQVSLSCAVKGFYPSDIAVEWESNGQPENNYKTTPPVLDSDGSFFLVSKLTVDKSRWQQGNVFSCSVMHEALHNHYTQKSLSLSPGGGGGSGGGGSGGGGSGGGGGSSWMEEVIKLCGRELVRAQIAICGMSTWS

What was measured:
Assay in all cases: cell-based or functional assay
mouse RXFP1 [1] = target: T1, mouse RXFP1 (mouse, UniProt Q6R6I7 1-758)
T1 sequence (looked up): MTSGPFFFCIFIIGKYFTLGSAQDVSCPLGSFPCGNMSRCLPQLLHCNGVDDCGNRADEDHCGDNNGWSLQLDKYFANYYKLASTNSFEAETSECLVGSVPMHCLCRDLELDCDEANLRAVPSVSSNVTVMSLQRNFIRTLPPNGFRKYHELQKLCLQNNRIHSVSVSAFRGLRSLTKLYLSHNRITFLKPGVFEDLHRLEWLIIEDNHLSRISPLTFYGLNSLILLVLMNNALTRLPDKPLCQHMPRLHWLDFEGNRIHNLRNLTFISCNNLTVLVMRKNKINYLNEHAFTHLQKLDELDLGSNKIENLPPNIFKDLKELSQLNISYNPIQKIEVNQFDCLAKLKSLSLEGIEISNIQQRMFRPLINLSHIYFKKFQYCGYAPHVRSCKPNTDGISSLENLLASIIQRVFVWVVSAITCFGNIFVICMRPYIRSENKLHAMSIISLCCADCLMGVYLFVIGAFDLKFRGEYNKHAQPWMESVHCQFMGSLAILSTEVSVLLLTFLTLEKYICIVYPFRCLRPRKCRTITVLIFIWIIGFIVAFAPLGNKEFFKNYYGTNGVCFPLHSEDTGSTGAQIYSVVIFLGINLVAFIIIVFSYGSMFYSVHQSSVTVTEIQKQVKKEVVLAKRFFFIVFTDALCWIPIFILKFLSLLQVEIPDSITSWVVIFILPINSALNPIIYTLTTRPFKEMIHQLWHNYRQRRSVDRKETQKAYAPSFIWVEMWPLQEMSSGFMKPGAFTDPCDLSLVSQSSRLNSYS

human RXFP1 [2] = target: T2, human RXFP1 (human, UniProt Q9HBX9 1-757)
T2 sequence (looked up): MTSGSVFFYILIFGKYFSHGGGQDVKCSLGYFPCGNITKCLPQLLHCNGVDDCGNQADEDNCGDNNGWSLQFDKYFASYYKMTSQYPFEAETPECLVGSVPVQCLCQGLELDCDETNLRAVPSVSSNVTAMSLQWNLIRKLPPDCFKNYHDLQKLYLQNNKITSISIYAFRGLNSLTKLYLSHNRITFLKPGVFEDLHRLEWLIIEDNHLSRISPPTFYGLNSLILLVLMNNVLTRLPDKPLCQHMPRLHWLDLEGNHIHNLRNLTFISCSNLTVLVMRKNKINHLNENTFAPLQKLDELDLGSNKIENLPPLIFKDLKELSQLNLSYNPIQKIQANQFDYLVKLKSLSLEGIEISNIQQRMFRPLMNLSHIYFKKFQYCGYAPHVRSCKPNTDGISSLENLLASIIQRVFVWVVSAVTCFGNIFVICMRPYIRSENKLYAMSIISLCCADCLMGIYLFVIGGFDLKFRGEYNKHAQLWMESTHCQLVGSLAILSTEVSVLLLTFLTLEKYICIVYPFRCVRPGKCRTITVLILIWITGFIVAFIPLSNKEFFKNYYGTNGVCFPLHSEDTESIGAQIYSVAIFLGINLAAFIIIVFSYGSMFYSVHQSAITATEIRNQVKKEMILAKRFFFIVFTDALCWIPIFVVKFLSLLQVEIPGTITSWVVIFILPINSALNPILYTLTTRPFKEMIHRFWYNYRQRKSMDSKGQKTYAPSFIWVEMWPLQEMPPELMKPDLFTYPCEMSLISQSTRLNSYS

human RXFP2 [3] = target: T3, human RXFP2 (human, UniProt Q8WXD0 1-754)
T3 sequence (Q8WXD0 whole entry): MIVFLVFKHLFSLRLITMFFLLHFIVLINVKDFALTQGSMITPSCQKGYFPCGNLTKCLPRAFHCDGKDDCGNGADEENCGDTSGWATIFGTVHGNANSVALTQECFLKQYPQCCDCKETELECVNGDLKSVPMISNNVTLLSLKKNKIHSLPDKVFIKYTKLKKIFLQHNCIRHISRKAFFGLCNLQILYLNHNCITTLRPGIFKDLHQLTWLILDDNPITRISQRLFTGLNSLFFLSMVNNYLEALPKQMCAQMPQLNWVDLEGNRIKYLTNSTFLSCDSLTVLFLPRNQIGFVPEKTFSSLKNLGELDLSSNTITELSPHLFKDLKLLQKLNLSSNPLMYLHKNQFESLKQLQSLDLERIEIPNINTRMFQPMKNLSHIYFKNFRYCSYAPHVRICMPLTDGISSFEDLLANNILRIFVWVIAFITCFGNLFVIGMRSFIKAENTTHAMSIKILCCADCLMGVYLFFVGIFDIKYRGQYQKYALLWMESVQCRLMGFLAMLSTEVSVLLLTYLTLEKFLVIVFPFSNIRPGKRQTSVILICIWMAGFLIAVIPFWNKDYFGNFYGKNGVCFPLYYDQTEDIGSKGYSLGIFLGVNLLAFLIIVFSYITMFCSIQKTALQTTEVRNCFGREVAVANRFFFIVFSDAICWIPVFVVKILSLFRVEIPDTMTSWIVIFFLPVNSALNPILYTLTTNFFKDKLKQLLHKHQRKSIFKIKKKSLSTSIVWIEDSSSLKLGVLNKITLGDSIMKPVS

mouse RXFP1 [4] = target: T1, mouse RXFP1; remark: listed apart in the source
human RXFP1 [5] = target: T2, human RXFP1; remark: listed apart in the source
human RXFP2 [6] = target: T3, human RXFP2; remark: listed apart in the source

| Binder | EC50 mRXFP1 (M), cAMP HTRF assay (mouse RXFP1 [1]) [M] | EC50 hRXFP1 (M), cAMP HTRF assay (human RXFP1 [2]) [M] | EC50 hRXFP2 (M), cAMP HTRF assay (human RXFP2 [3]) [M] | EC50 mRXFP1 (M), cAMP HTRF assay (mouse RXFP1 [4]) [M] | EC50 hRXFP1 (M), cAMP HTRF assay (human RXFP1 [5]) [M] | EC50 hRXFP2 (M), cAMP HTRF assay (human RXFP2 [6]) [M] |
| --- | --- | --- | --- | --- | --- | --- |
| B1 | 3.69e-11 | 5.76e-11 | > 1.62e-07 |  |  |  |
| B2 | 5.02e-11 | 6.67e-11 | 1.07e-07 |  |  |  |
| B3 |  |  |  | 2.79e-11 | 4.41e-11 | 3.54e-08 |
| B4 | 3.93e-11 | 6.87e-11 | 1.15e-07 |  |  |  |
| B5 | 4.03e-11 | 8.53e-11 | > 2.3e-07 |  |  |  |
| B6 | 4.15e-11 | 5.7e-11 | 8.63e-08 |  |  |  |
| B7 | 4.53e-11 | 5.45e-11 | 9.21e-08 |  |  |  |
| B8 | 6.14e-11 | 9.47e-11 | > 1.43e-07 |  |  |  |
| B9 |  |  |  | 1.56e-11 | 4.6e-11 | 4.26e-08 |
| B10 |  |  |  | 4.14e-11 | 8.27e-11 |  |
| B11 |  |  |  | 3.28e-11 | 4.74e-11 |  |
| B12 |  |  |  | 2.88e-11 | 5.88e-11 | > 1.09e-07 |
| B13 |  |  |  | 1.74e-11 | 1.06e-11 | 1.61e-08 |
